Assay results as given in paper PMC9891256.

Molecular target: KREPA2 αH1 group mutant of the negatively charged glutamic and aspartic acid residues (to alanine) (T. brucei)
Assay: pull-down

## kinetoplastid RNA editing ligase 1 (KREL1) full-length (51-469) (enzyme)
  decrease in binding efficiency against the wild type: 75%
